What follows are binders tested against T1, PUF4 RNA-binding domain (Saccharomyces cerevisiae, UniProt P25339 537-888) (assay: Mg; RNA-MaP; 20 mM Na-HEPES pH 7.4, 30 mM KOAc, 0.75 mM MgCl2, 0.1% Tween-20, 5% glycerol, 0.1 mg/mL BSA, 2 mM DTT; 25 C; 0.0125-409.6 nM protein). Details: tags: N-His6-TEV cleaved; C-SNAP kept, Cy3B-labelled; label: tethered on chip by stalled RNA polymerase.
T1 sequence: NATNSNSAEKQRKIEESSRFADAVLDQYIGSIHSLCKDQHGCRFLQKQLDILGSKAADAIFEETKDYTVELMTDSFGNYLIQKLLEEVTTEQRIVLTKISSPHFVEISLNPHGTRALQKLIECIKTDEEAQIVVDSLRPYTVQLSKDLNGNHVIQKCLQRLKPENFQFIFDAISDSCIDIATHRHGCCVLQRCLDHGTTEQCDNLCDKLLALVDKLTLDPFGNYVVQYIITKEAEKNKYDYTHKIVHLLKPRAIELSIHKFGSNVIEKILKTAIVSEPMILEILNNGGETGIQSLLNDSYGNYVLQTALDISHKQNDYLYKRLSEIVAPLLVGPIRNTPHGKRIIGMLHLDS

Row | Binder | Kd [nM]
1 | Ib_S2_P4E.1_K4.1_C4.1_H4.1_[G2T]_[A4C]_A4.1_F4.1_T4.1 (ssRNA) RNA: UUUGAUUAAUAUGAUAUCGUUCUUUCUUUUCUAUUAUUCUUUCUCGAUAUCAUAUUAAUCUUU | > 2300
2 | Ia_S2_P4E.1_K4.1_C4.1_H4.1_[A4T]_A4.1_F4.1_T4.1 (ssRNA) RNA: UUUGAUUAAUAUGAUAUCGUUCUUUCUUGUUUAUUAUUCUUUCUCGAUAUCAUAUUAAUCUUU | 4.39
3 | Ib_S2_P4E.1_K4.1_C4.1_H4.1_[T3C]_[A4C]_A4.1_F4.1_T4.1 (ssRNA) RNA: UUUGAUUAAUAUGAUAUCGUUCUUUCUUGCCUAUUAUUCUUUCUCGAUAUCAUAUUAAUCUUU | 1130
4 | Ib_S2_P4E.1_K4.1_C4.1_H4.1_[G2T]_[A4T]_A4.1_F4.1_T4.1 (ssRNA) RNA: UUUGAUUAAUAUGAUAUCGUUCUUUCUUUUUUAUUAUUCUUUCUCGAUAUCAUAUUAAUCUUU | > 2300
5 | Ib_S2_P4E.1_K4.1_C4.1_H4.1_[G2A]_A4.1_[T7G]_F4.1_T4.1 (ssRNA) RNA: UUUGAUUAAUAUGAUAUCGUUCUUUCUUAUAUAGUAUUCUUUCUCGAUAUCAUAUUAAUCUUU | 80.2
6 | Ib_S2_P4E.1_K4.1_C4.1_H4.1_[G2T]_A4.1_[A6T]_F4.1_T4.1 (ssRNA) RNA: UUUGAUUAAUAUGAUAUCGUUCUUUCUUUUAUUUUAUUCUUUCUCGAUAUCAUAUUAAUCUUU | 1390
7 | Ib_S2_P4E.1_K4.1_C4.1_H4.1_[G2T]_A4.1_[A6C]_F4.1_T4.1 (ssRNA) RNA: UUUGAUUAAUAUGAUAUCGUUCUUUCUUUUAUCUUAUUCUUUCUCGAUAUCAUAUUAAUCUUU | > 2300
8 | Ib_S2_P4E.1_K4.1_C4.1_H4.1_[G2C]_A4.1_[T7C]_F4.1_T4.1 (ssRNA) RNA: UUUGAUUAAUAUGAUAUCGUUCUUUCUUCUAUACUAUUCUUUCUCGAUAUCAUAUUAAUCUUU | 190
9 | Ib_S2_P4E.1_K4.1_C4.1_H4.1_[T1G]_A4.1_[T7A]_F4.1_T4.1 (ssRNA) RNA: UUUGAUUAAUAUGAUAUCGUUCUUUCUGGUAUAAUAUUCUUUCUCGAUAUCAUAUUAAUCUUU | 303
10 | Ib_S2_P4E.1_K4.1_C4.1_H4.1_[A4G]_A4.1_[A6C]_F4.1_T4.1 (ssRNA) RNA: UUUGAUUAAUAUGAUAUCGUUCUUUCUUGUGUCUUAUUCUUUCUCGAUAUCAUAUUAAUCUUU | 8.2
11 | Ib_S2_P4E.1_K4.1_C4.1_H4.1_[T3C]_[A4T]_A4.1_F4.1_T4.1 (ssRNA) RNA: UUUGAUUAAUAUGAUAUCGUUCUUUCUUGCUUAUUAUUCUUUCUCGAUAUCAUAUUAAUCUUU | 667
12 | Ib_S2_P4E.1_K4.1_C4.1_H4.1_[T3C]_A4.1_[T7G]_F4.1_T4.1 (ssRNA) RNA: UUUGAUUAAUAUGAUAUCGUUCUUUCUUGCAUAGUAUUCUUUCUCGAUAUCAUAUUAAUCUUU | 616
13 | Ib_S2_P4E.1_K4.1_C4.1_H4.1_[G2A]_[A4G]_A4.1_F4.1_T4.1 (ssRNA) RNA: UUUGAUUAAUAUGAUAUCGUUCUUUCUUAUGUAUUAUUCUUUCUCGAUAUCAUAUUAAUCUUU | 13.3
14 | Ib_S2_P4E.1_K4.1_C4.1_H4.1_[T3C]_A4.1_[T5C]_F4.1_T4.1 (ssRNA) RNA: UUUGAUUAAUAUGAUAUCGUUCUUUCUUGCACAUUAUUCUUUCUCGAUAUCAUAUUAAUCUUU | 14.6
15 | Ib_S2_P4E.1_K4.1_C4.1_H4.1_[A4C]_A4.1_[A6T]_F4.1_T4.1 (ssRNA) RNA: UUUGAUUAAUAUGAUAUCGUUCUUUCUUGUCUUUUAUUCUUUCUCGAUAUCAUAUUAAUCUUU | 28.6
16 | Ib_S2_P4E.1_K4.1_C4.1_H4.1_[G2T]_A4.1_[A6G]_F4.1_T4.1 (ssRNA) RNA: UUUGAUUAAUAUGAUAUCGUUCUUUCUUUUAUGUUAUUCUUUCUCGAUAUCAUAUUAAUCUUU | > 2300
17 | Ib_S2_P4E.1_K4.1_C4.1_H4.1_[T1C]_A4.1_[A6T]_F4.1_T4.1 (ssRNA) RNA: UUUGAUUAAUAUGAUAUCGUUCUUUCUCGUAUUUUAUUCUUUCUCGAUAUCAUAUUAAUCUUU | 126
18 | Ib_S2_P4E.1_K4.1_C4.1_H4.1_[T1G]_A4.1_[A6T]_F4.1_T4.1 (ssRNA) RNA: UUUGAUUAAUAUGAUAUCGUUCUUUCUGGUAUUUUAUUCUUUCUCGAUAUCAUAUUAAUCUUU | 497

Row | Binder | Kd [nM]
19 | Ib_S2_P4E.1_K4.1_C4.1_H4.1_[T3C]_A4.1_[A6C]_F4.1_T4.1 (ssRNA) RNA: UUUGAUUAAUAUGAUAUCGUUCUUUCUUGCAUCUUAUUCUUUCUCGAUAUCAUAUUAAUCUUU | 1010
20 | Ib_S2_P4E.1_K4.1_C4.1_H4.1_[T1C]_A4.1_[T7G]_F4.1_T4.1 (ssRNA) RNA: UUUGAUUAAUAUGAUAUCGUUCUUUCUCGUAUAGUAUUCUUUCUCGAUAUCAUAUUAAUCUUU | 132
21 | Ib_S2_P4E.1_K4.1_C4.1_H4.1_[T1C]_A4.1_[A6G]_F4.1_T4.1 (ssRNA) RNA: UUUGAUUAAUAUGAUAUCGUUCUUUCUCGUAUGUUAUUCUUUCUCGAUAUCAUAUUAAUCUUU | 795
22 | Ib_S2_P4E.1_K4.1_C4.1_H4.1_[T3C]_A4.1_[A6G]_F4.1_T4.1 (ssRNA) RNA: UUUGAUUAAUAUGAUAUCGUUCUUUCUUGCAUGUUAUUCUUUCUCGAUAUCAUAUUAAUCUUU | 777
23 | Ib_S2_P4E.1_K4.1_C4.1_H4.1_[G2T]_A4.1_[T5A]_F4.1_T4.1 (ssRNA) RNA: UUUGAUUAAUAUGAUAUCGUUCUUUCUUUUAAAUUAUUCUUUCUCGAUAUCAUAUUAAUCUUU | 1900
24 | Ia_S2_P4E.1_K4.1_C4.1_H4.1_[G2T]_A4.1_F4.1_T4.1 (ssRNA) RNA: UUUGAUUAAUAUGAUAUCGUUCUUUCUUUUAUAUUAUUCUUUCUCGAUAUCAUAUUAAUCUUU | 137
25 | Ib_S2_P4E.1_K4.1_C4.1_H4.1_[T1A]_A4.1_[T7G]_F4.1_T4.1 (ssRNA) RNA: UUUGAUUAAUAUGAUAUCGUUCUUUCUAGUAUAGUAUUCUUUCUCGAUAUCAUAUUAAUCUUU | 550
26 | Ib_S2_P4E.1_K4.1_C4.1_H4.1_[G2A]_A4.1_[A6C]_F4.1_T4.1 (ssRNA) RNA: UUUGAUUAAUAUGAUAUCGUUCUUUCUUAUAUCUUAUUCUUUCUCGAUAUCAUAUUAAUCUUU | 154
27 | Ib_S2_P4E.1_K4.1_C4.1_H4.1_[G2A]_[A4T]_A4.1_F4.1_T4.1 (ssRNA) RNA: UUUGAUUAAUAUGAUAUCGUUCUUUCUUAUUUAUUAUUCUUUCUCGAUAUCAUAUUAAUCUUU | 852
28 | Ib_S2_P4E.1_K4.1_C4.1_H4.1_[T1A]_A4.1_[A6T]_F4.1_T4.1 (ssRNA) RNA: UUUGAUUAAUAUGAUAUCGUUCUUUCUAGUAUUUUAUUCUUUCUCGAUAUCAUAUUAAUCUUU | 739
29 | Ib_S2_P4E.1_K4.1_C4.1_H4.1_[T1G]_A4.1_[T5C]_F4.1_T4.1 (ssRNA) RNA: UUUGAUUAAUAUGAUAUCGUUCUUUCUGGUACAUUAUUCUUUCUCGAUAUCAUAUUAAUCUUU | 21.1
30 | Ib_S2_P4E.1_K4.1_C4.1_H4.1_[T1A]_A4.1_[T5A]_F4.1_T4.1 (ssRNA) RNA: UUUGAUUAAUAUGAUAUCGUUCUUUCUAGUAAAUUAUUCUUUCUCGAUAUCAUAUUAAUCUUU | 657
31 | Ib_S2_P4E.1_K4.1_C4.1_H4.1_[G2A]_[A4C]_A4.1_F4.1_T4.1 (ssRNA) RNA: UUUGAUUAAUAUGAUAUCGUUCUUUCUUAUCUAUUAUUCUUUCUCGAUAUCAUAUUAAUCUUU | 1120
32 | Ib_S2_P4E.1_K4.1_C4.1_H4.1_[A4G]_A4.1_[A6T]_F4.1_T4.1 (ssRNA) RNA: UUUGAUUAAUAUGAUAUCGUUCUUUCUUGUGUUUUAUUCUUUCUCGAUAUCAUAUUAAUCUUU | 4.38
33 | Ib_S2_P4E.1_K4.1_C4.1_H4.1_[G2C]_A4.1_[A6G]_F4.1_T4.1 (ssRNA) RNA: UUUGAUUAAUAUGAUAUCGUUCUUUCUUCUAUGUUAUUCUUUCUCGAUAUCAUAUUAAUCUUU | 1150
34 | Ia_S2_P4E.1_K4.1_C4.1_H4.1_[A4C]_A4.1_F4.1_T4.1 (ssRNA) RNA: UUUGAUUAAUAUGAUAUCGUUCUUUCUUGUCUAUUAUUCUUUCUCGAUAUCAUAUUAAUCUUU | 4.11
35 | UCUCUUAGUAUAUAUCUCUU (ssRNA) [Ia_S1_P3E.1_K3.1_C3.1_H3.1_[T1A]_A3.1_F3.1_T3.1] | 742

From article PMC9352680, “A comprehensive thermodynamic model for RNA binding by the Saccharomyces cerevisiae Pumilio protein PUF4”
